Measured values from US20240181006A1, “POLYPEPTIDES BINDING ADAMTS5, MMP13 AND AGGRECAN” (Merck Patent GmbH, priority 2017, published 2024).

Target: T1, human ADAMTS4 (Homo sapiens, UniProt O75173)
T1 construct: purchased R&D Systems 4307-AD
T1 sequence (O75173 213-837): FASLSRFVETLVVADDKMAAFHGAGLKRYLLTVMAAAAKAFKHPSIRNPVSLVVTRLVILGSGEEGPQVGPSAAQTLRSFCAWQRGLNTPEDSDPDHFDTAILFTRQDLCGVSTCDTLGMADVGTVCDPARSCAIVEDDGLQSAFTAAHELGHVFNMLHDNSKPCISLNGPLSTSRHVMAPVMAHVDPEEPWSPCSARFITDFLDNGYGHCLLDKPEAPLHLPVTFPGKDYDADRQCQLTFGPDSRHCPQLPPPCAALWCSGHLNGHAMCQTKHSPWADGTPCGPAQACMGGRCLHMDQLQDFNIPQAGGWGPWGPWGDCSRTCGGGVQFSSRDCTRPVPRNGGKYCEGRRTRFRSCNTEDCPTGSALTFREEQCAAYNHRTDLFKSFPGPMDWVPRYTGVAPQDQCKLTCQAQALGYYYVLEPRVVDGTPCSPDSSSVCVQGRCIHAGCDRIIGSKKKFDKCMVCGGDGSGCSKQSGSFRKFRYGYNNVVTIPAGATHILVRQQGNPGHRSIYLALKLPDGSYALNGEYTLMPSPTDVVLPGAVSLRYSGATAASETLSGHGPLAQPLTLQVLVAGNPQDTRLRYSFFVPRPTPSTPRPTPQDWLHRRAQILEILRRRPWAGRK
Test: human ADAMTS4 AlphaLISA
Type: biochemical
Conditions: data not shown
Experimental: To confirm the selectivity of ISVD 02F03 for ADAMTS5, inhibition of the enzymatic activity of MMP1, MMP14 and ADAMTS4 was evaluated via FRET-based assays and a human ADAMTS4 AlphaLISA, with the respective enzymes.
To evaluate inhibition of human ADAMTS4, an assay similar to the human ADAMTS5 AlphaLISA was carried out, essentially as described in Example 2.1, but using human ADAMTS4 (R&D Systems, Minneapolis, US; cat #4307-AD). To determine the ability of ISVD 02F03 to prevent human ADAMTS4-mediated cleavage of the substrate, the decrease in signal was analysed in function of ISVD 02F03 concentration and IC50 values were calculated.

- inhibition of human ADAMTS4 activity: did not show any inhibitory activity
B1: ISVD 02F03: immunoglobulin single variable domain which specifically binds ADAMTS5 (protein)
VHH: EVQLVESGGGVVQPGGSLRLSCAASGRTVSSYAMGWFRQAPGKEREFVAGISRSAERTYYVDSLKGRFTISRDNSKNTVYLQMNSLRPEDTALYYCAADLDPNRIFSREEYAYWGQGTLVTVSS
modifications: Description of Artificial Sequence: Synthetic anti-ADAMTS5 immunoglobulin single variable domain (ISVD)
